# Data reported in patent US8841274B2, “Protein arginine N-methyltransferase-5 method of cancer treatment” (priority 2009, dated 2014).
# Tests used:
# PRMT5 [1] = target: T1, PRMT5 (Homo sapiens, UniProt O14744); test: In vitro methyltransferase assay of E2F-1 proteins; assay type: biochemical; design: made in house; host or cells: U2OS cells (transient transfection, anti-Flag immunoprecipitation, elution); settings: about 1 μg protein, 3H labeled SAM; mutants compared with wild-type E2F-1
# Description: To assess whether the RGRGR motif was a direct target for PRMT5 methylation, a series of mutant derivatives of E2F-1 were made in which each arginine (R) residue was substituted with a lysine residue (K; FIG. 1a), and the ability of the mutant derivative to be methylated in vitro then assessed. […] In FIG. 1b(i) each of the indicated proteins (about 1 μg) was used in the methylation reaction. In vitro methylated samples were analysed by SDS-PAGE as described below. E2F-1 is indicated. In FIG. 1b(ii) samples in FIG. 1b(i) were counted (3H cpm as indicated). Histones treated with PRMT5 served as the positive control. The data shown provide one example taken from two different experiments.
# Flag-PRMT5 plasmid was transfected into U2OS cells for 48 h. Cells were lysed and Flag-PRMT5 was immunoprecipitated with agarose beads and then eluted. The elute was mixed with recombinant substrates (GST fusion proteins or histones) in methylation reaction buffer (50 mM Tris, 0.1 mM EDTA, 50 mM NaCl) with ^3H labeled SAM (as —CH3 group donor) to a volume of 40 μl and incubated at 30° C. for 90 min. Half of the reactions were then spotted onto p81 membrane circles (Whatman) and air dried. The membranes were then washed three times, 5 min each in 50 ml of wash buffer (46 mM NaHCO3, 4 mM Na2CO3, pH 9.2). After washing briefly with acetone, membranes were air dried, placed in scintillation vials, immersed in scintillation fluid (Beckman Coulter) and disintegrations per minute (DPM) measured in a scintillation counter. The other half of the reactions were run on SDS-PAGE gel and used to detect ^3H auto-radioisotope/methylation signal.
# Target sequence in this assay (O14744 whole entry): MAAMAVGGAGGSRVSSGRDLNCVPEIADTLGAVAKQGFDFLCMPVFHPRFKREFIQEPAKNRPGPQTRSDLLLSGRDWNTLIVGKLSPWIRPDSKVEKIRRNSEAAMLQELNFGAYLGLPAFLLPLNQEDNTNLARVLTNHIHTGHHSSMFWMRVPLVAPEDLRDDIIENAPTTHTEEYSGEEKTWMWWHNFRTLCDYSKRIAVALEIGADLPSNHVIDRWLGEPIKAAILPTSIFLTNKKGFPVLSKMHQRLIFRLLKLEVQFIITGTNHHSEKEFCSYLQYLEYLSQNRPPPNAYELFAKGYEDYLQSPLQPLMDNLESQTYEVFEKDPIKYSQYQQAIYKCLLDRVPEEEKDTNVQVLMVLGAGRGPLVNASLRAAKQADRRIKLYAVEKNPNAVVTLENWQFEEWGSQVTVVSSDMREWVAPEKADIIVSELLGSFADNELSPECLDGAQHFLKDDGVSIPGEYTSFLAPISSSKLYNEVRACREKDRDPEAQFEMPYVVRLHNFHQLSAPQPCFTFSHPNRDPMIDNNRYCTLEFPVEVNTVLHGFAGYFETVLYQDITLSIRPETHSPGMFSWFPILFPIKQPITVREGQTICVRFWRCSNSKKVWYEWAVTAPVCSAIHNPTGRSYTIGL
# Target sequence in this assay (Q9BQA1 whole entry partner): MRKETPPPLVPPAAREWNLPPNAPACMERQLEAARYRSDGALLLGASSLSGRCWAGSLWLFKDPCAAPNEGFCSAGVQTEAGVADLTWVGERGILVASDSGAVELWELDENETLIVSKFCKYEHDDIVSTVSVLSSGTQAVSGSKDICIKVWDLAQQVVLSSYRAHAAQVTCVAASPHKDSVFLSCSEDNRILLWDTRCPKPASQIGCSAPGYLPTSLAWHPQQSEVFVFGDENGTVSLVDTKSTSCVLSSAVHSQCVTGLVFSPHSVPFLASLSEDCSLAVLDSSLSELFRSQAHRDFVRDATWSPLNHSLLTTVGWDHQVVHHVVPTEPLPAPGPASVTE
# PRMT5 [2] = target: T1, PRMT5; test: GST binding assay with U2OS cell lysate, PRMT5 immunoblot; design: The indicated GST proteins were incubated with U2OS cell lysate; endogenous in cells; host or cells: U2OS; settings: GST-E2F-1 proteins incubated with U2OS cell lysate
# Description: It was then assessed whether E2F-1 could interact with PRMT5 and thereafter the role of each R residue in mediating the interaction. […] The indicated GST proteins were incubated with U2OS cell lysate, and bound proteins immunoblotted using anti-GST (for input GST), DP-1 or PRMT5 antibodies. Binding to DP-1, the major heterodimeric partner for E2F-1 (Stevens and La Thangue 2003), served as a control since it bound equally to each of the E2F-1 proteins.
# GST or GST tagged proteins (10 μg each) were incubated with agarose beads and damaged or undamaged U2OS cell lysates for 3 h. Beads were then washed with TNN buffer 3 times. SDS sample buffer was added to beads and samples were analysed by immunoblotting.
# Target sequence in this assay (O14744 whole entry): as the sequence (O14744 whole entry) above
# DP-1 = target: T2, DP-1 (Homo sapiens, UniProt Q14186); test: Co-immunoprecipitation of ectopic E2F-1 with DP-1 in U2OS cells; assay type: cell-based; settings: expression vector transfected into U2OS cells, HA11 IP
# T2 construct: endogenous in cells; host or cells: U2OS
# T2 sequence (Q14186 1-410): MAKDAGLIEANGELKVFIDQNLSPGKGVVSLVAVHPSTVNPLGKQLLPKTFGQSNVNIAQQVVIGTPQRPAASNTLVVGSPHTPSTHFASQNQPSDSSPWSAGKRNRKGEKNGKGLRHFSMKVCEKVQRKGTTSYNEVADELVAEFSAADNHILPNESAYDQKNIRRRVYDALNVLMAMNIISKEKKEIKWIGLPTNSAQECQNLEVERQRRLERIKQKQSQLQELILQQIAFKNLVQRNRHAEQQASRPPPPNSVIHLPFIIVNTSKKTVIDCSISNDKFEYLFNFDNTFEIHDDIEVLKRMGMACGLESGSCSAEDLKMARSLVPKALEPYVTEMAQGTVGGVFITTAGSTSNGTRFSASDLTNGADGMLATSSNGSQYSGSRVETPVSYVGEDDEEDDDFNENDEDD
# From the text: (§1) To establish whether E2F-1 was able to bind to PRMT5 in cells, the interaction between ectopic wild-type E2F-1 or KKK with PRMT5 was studied. […] Either a wild-type E2F-1 expression vector or a KKK expression vector was transfected into U2OS cells, and HA11 antibody was used for immunoprecipitation (IP) followed by immunoblotting with HA11 (E2F-1), PRMT5 or DP-1 as indicated. The level of input (In) protein is indicated. […] In contrast, binding to DP-1 was equivalent for both wild-type E2F-1 and KKK. […] Further, the RGRGR motif is necessary for the interaction, which also encompasses the site of PRMT5 methylation.
# (§2) Cells were either left untransfected or transfected with expression vectors as indicated. At 48 h post transfection, cells were harvested in TNN buffer (50 mM Tris-HC1 [pH 7.4], 150 mM NaCl, 5 mM EDTA, 0.5% Ipegal, 50 mM NaF, 0.2 mM sodium orthovanadate and protease inhibitor cocktail (1 mM PMSF, leupeptin [1 μg/ml], aprotinin [1 μg/m1], and pepstatin A [1 μg/ml])) and rotated at 4° C. for 30 min to 1 h. The cell lysate was then homogenised, centrifuged at 11000 rpm for 10 min to remove cell debris and the supernatant collected. All lysates were normalized for protein concentration and, where appropriate, for transfection by β-galactosidase activity. […] Enhanced chemi-luminescence (Pierce Biotechnology, Rockford, Ill.) was used to visualize antibody binding.
# PRMT5 [3] = target: T1, PRMT5; test: Co-immunoprecipitation of ectopic E2F-1 with PRMT5 in U2OS cells; assay type: cell-based; design: The indicated GST proteins were incubated with U2OS cell lysate; endogenous in cells; host or cells: U2OS; settings: expression vector transfected into U2OS cells, HA11 IP
# From the text: as §1, §2
# Target sequence in this assay (O14744 whole entry): as the sequence (O14744 whole entry) above
# [4] = test system: p73-luciferase or cyclinE-luciferase; test: Reporter assay with E2F-responsive promoters; assay type: cell-based; settings: U2OS cells, 48 h, equivalent protein level; compared to wild-type E2F-1; n=3
# Description: To further explore the role of arginine methylation in the transcription properties of E2F-1, wild-type E2F-1 was compared with the KK and KKK mutants in a reporter-based transfection assay, using E2F-responsive promoters derived from E2F target genes. The assay was performed under conditions in which each mutant protein was expressed at an equivalent level to wild-type E2F-1 (FIG. 4aii and bii), thus ruling out any difference in activity that could be attributed to protein levels. […] FIGS. 4a and b show the transcription properties of wild-type E2F-1, KK and KKK mutants. U2OS cells were transfected with expression vectors encoding WT or mutant E2F-1 protein, together with p73-luciferase (A) or cyclinE-luciferase (B) for 48 h as indicated, and pCMV-βgal to monitor transfection efficiency. Relative luciferase activity (luciferase/βgal) is shown together with expression level of ectopic proteins; n=3. […] PRMT5 (P) or control (C) non-targeting siRNA was transfected into U2OS cells together with p73-luciferase (i) or cyclinE-luciferase (ii) for 48 h, together with pCMV-βgal to monitor transfection efficiency. Relative luciferase activity is shown together with expression level of the ectopic proteins.
# Cells were transfected with expression vectors (1 μg) encoding WT or the mutant E2F-1 proteins as indicated with E2F responsive luciferase reporters, namely p73-luciferase or cyclinE-luciferase, together with pCMV-βgal to monitor transfection efficiency. Cells were harvested, lysed 48 h post-transfection and luciferase activity measured as previously described (Janson et al 2008).
# U2OS cells = test: Apoptosis (sub-G1) by FACS in U2OS cells; assay type: cell-based; settings: U2OS cells, expression vectors 48 h; relative to wild-type E2F-1; n=2
# Description: Whether arginine methylation influences E2F-1-dependent apoptosis was investigated by comparing the ability of wild-type E2F-1 to the KK and KKK mutants to induce cells with a sub-G1 DNA content (Stevens et al 2003). […] U2OS cells were transfected with expression vectors encoding wild-type E2F-1, KK and KKK as indicated for 48 h and analysed by FACS as described. The graph represents the relative change in sub-G1 populations compared to the empty vector control treatment; n=2.
# The graph (i) represents the relative number of sub-G I cells (compared to the control treatment) in the indicated conditions; and (ii) the level of PRMT5 and E2F-1; n=3.
# PRMT5 (P) or control (C) non-targeting siRNA (25 nM) was transfected into HCT116 p53+/+ (i), HCT116 p53−/− (ii) or U2OS (iii) cells and the cells were harvested 72 h post-transfection and analysed by FACS. The graph represents the actual number of sub-G1 cells in the indicated conditions, and the immunoblot the level of PRMT5 and actin control; n=3.
# PRMT5 (P), E2F-1 (E) or control (C) non-targeting siRNA was transfected into U2OS cells and harvested 72 h post-transfection and analysed by FACS as described.
# Cells were transfected with the indicated expression vectors together with pBB14-GFP (for 48 h) to monitor transfection efficiency or siRNA (for 48 h or 72 h) with or without treatment of the DNA damage agent for the last 16 h. Then, cells were fixed and stained with propidium iodide and analyzed by Flow Cytometry.
substance,measurement,setting,value
R109K: mutant E2F-1 with arginine 109 substituted with lysine,in vitro methylation by PRMT5,PRMT5 [1],reduced methylation
same,binding to PRMT5,PRMT5 [2],significant PRMT5 binding activity
R111K: mutant E2F-1 with arginine 111 substituted with lysine,in vitro methylation by PRMT5,PRMT5 [1],greater level of reduction
same,binding to PRMT5,PRMT5 [2],compromised PRMT5 binding
"wild-type E2F-1: E2F-1 protein, SEQ ID NO:3, used as GST fusion or HA-tagged expression vector",binding to DP-1 in cells,DP-1,equivalent
same,in vitro methylation by PRMT5,PRMT5 [1],could be methylated in vitro
same,binding to PRMT5,PRMT5 [2],bound to PRMT5
same,co-immunoprecipitation with PRMT5,PRMT5 [3],co-immunoprecipitated with PRMT5
KK: methylation-defective E2F-1 protein containing the mutations R111K and R113K,transcriptional activity (relative luciferase activity),[4],increased transcriptional activity
same,apoptosis (sub-G1 population),U2OS cells,increased levels of apoptosis
same,in vitro methylation by PRMT5,PRMT5 [1],could not be methylated by PRMT5
same,binding to PRMT5,PRMT5 [2],completely devoid of PRMT5 binding
R113K: mutant E2F-1 with arginine 113 substituted with lysine,in vitro methylation by PRMT5,PRMT5 [1],greater level of reduction
same,binding to PRMT5,PRMT5 [2],compromised PRMT5 binding
